Measured values taken from article PMC6555819, “Comprehensive study of nuclear receptor DNA binding provides a revised framework for understanding receptor specificity”.
Where a chain is given by its changes, count along the chain named.

B1: NRC3_wobSeed28_DR1_C4T_o1 (dsDNA)
DNA 1: GCCTTACTGGGCCAAAGGTCATTGATTCCAATGCTCGCGATTGACAGCGTAGAATGAAGG
DNA 2: CCTTCATTCTACGCTGTCAATCGCGAGCATTGGAATCAATGACCTTTGGCCCAGTAAGGC
B2: NRC3_random_hg19_404_o1 (dsDNA)
DNA 1: GCACTTCGTGATCTGCCTGCCTTAGCCTCCCAAAGTGCGATTGACAGCGTAGAATGAAGG
DNA 2: CCTTCATTCTACGCTGTCAATCGCACTTTGGGAGGCTAAGGCAGGCAGATCACGAAGTGC
B3: NRC3_random_hg19_447_o1 (dsDNA)
DNA 1: GCCTCTCTTTCTCTCTCTCTCTCTCTCTCTCTCTCTGCGATTGACAGCGTAGAATGAAGG
DNA 2: CCTTCATTCTACGCTGTCAATCGCAGAGAGAGAGAGAGAGAGAGAGAGAGAAAGAGAGGC
B4: NRC3_wobSeed41_DR1_T13G_o1 (dsDNA)
DNA 1: GCATATGTAGGTGAAGGGTCATTCAGGTTGGTTCGCGCGATTGACAGCGTAGAATGAAGG
DNA 2: CCTTCATTCTACGCTGTCAATCGCGCGAACCAACCTGAATGACCCTTCACCTACATATGC
B5: NRC3_random_hg19_189_o1 (dsDNA)
DNA 1: GCATCTGCCTTGCTCTTTCTACCTTTCAGTGTCTTTGCGATTGACAGCGTAGAATGAAGG
DNA 2: CCTTCATTCTACGCTGTCAATCGCAAAGACACTGAAAGGTAGAAAGAGCAAGGCAGATGC
B6: NRC3_random_hg19_396_o1 (dsDNA)
DNA 1: GCTTGTTGTGGTTGATGTTGTTCACTCTCAGTCTCCGCGATTGACAGCGTAGAATGAAGG
DNA 2: CCTTCATTCTACGCTGTCAATCGCGGAGACTGAGAGTGAACAACATCAACCACAACAAGC
B7: NRC3_random_hg19_139_o1 (dsDNA)
DNA 1: GCAGGATCGCTTGAGTCCAGAGTTTGAGACCAGCCTGCGATTGACAGCGTAGAATGAAGG
DNA 2: CCTTCATTCTACGCTGTCAATCGCAGGCTGGTCTCAAACTCTGGACTCAAGCGATCCTGC
B8: NRC3_wobSeed133_DR5_T12A_o1 (dsDNA)
DNA 1: GCCGTCCAAGGACAATGCTAGGTCAGTGAAAGCATTGCGATTGACAGCGTAGAATGAAGG
DNA 2: CCTTCATTCTACGCTGTCAATCGCAATGCTTTCACTGACCTAGCATTGTCCTTGGACGGC
B9: NRC3_wobSeed46_DR1_C6T_o1 (dsDNA)
DNA 1: GCTTATCAAGGTGAAAGGTCGTTGATGCACGCCTTGGCGATTGACAGCGTAGAATGAAGG
DNA 2: CCTTCATTCTACGCTGTCAATCGCCAAGGCGTGCATCAACGACCTTTCACCTTGATAAGC
B10: NRC3_random_hg19_197_o1 (dsDNA)
DNA 1: GCGCAACCTCTGCCTCTCAGGCTCAAGTGACCTTCCGCGATTGACAGCGTAGAATGAAGG
DNA 2: CCTTCATTCTACGCTGTCAATCGCGGAAGGTCACTTGAGCCTGAGAGGCAGAGGTTGCGC
B11: NRC3_wobSeed39_DR1_A19G_o1 (dsDNA)
DNA 1: GCCGAACTAGGTCAAAGGGCAGTGAAAGGCGACGTAGCGATTGACAGCGTAGAATGAAGG
DNA 2: CCTTCATTCTACGCTGTCAATCGCTACGTCGCCTTTCACTGCCCTTTGACCTAGTTCGGC
B12: NRC3_wobSeed17_DR0_T13C_o1 (dsDNA)
DNA 1: GCATATGTAGGTCAGGGTCATTCAGAAAGTAGGGAAGCGATTGACAGCGTAGAATGAAGG
DNA 2: CCTTCATTCTACGCTGTCAATCGCTTCCCTACTTTCTGAATGACCCTGACCTACATATGC
B13: NRC3_wobSeed40_DR1_A4G_o1 (dsDNA)
DNA 1: GCTGGCCTAGGTCATGGGCCAGTATACCACGCGAACGCGATTGACAGCGTAGAATGAAGG
DNA 2: CCTTCATTCTACGCTGTCAATCGCGTTCGCGTGGTATACTGGCCCATGACCTAGGCCAGC
B14: NRC3_random_hg19_278_o1 (dsDNA)
DNA 1: GCGCTACTTGGGAGGCTGAGATGGTAGAATCACTTGGCGATTGACAGCGTAGAATGAAGG
DNA 2: CCTTCATTCTACGCTGTCAATCGCCAAGTGATTCTACCATCTCAGCCTCCCAAGTAGCGC
B15: NRC3_random_hg19_393_o1 (dsDNA)
DNA 1: GCTCCCAGCCACTCAGGAGGCTGAGGCAGGAGAATTGCGATTGACAGCGTAGAATGAAGG
DNA 2: CCTTCATTCTACGCTGTCAATCGCAATTCTCCTGCCTCAGCCTCCTGAGTGGCTGGGAGC
B16: NRC3_wobSeed26_DR1_C4T_o1 (dsDNA)
DNA 1: GCTTTAGTTGGTCAAAGGTCACACACTCGAAATGCGGCGATTGACAGCGTAGAATGAAGG
DNA 2: CCTTCATTCTACGCTGTCAATCGCCGCATTTCGAGTGTGTGACCTTTGACCAACTAAAGC
B17: NRC3_random_hg19_62_o1 (dsDNA)
DNA 1: GCAGATGGGAGAGTTCCCTTGATTCCTTTGTGGGAGGCGATTGACAGCGTAGAATGAAGG
DNA 2: CCTTCATTCTACGCTGTCAATCGCCTCCCACAAAGGAATCAAGGGAACTCTCCCATCTGC
B18: NRC3_wobSeed89_DR3_T13G_o1 (dsDNA)
DNA 1: GCCTATGTAGGTGAAGGGGGTCATTCAGTTTGAAAGGCGATTGACAGCGTAGAATGAAGG
DNA 2: CCTTCATTCTACGCTGTCAATCGCCTTTCAAACTGAATGACCCCCTTCACCTACATAGGC
B19: NRC3_wobSeed5_DR0_A14T_o1 (dsDNA)
DNA 1: GCCCTTACGGGTCTAGGTTATAGCACGGGTGGTACGGCGATTGACAGCGTAGAATGAAGG
DNA 2: CCTTCATTCTACGCTGTCAATCGCCGTACCACCCGTGCTATAACCTAGACCCGTAAGGGC
B20: NRC3_wobSeed69_DR2_C6A_o1 (dsDNA)
DNA 1: GCAGTAAAAGTTCACTAGGTAACGTAAGATTCAGCTGCGATTGACAGCGTAGAATGAAGG
DNA 2: CCTTCATTCTACGCTGTCAATCGCAGCTGAATCTTACGTTACCTAGTGAACTTTTACTGC
B21: NRC3_wobSeed69_DR2_T11G_o1 (dsDNA)
DNA 1: B20 DNA 1 with A6C, T11G
DNA 2: B20 DNA 2 with A50C, T55G
B22: NRC3_random_hg19_249_o1 (dsDNA)
DNA 1: GCTTTCCCACAATGTGTAGTTAGAGTTTGAGTTGTGGCGATTGACAGCGTAGAATGAAGG
DNA 2: CCTTCATTCTACGCTGTCAATCGCCACAACTCAAACTCTAACTACACATTGTGGGAAAGC
B23: NRC3_random_hg19_399_o1 (dsDNA)
DNA 1: GCATGAGATTTCACTGTGTTAGCCAGGATGGTCTCCGCGATTGACAGCGTAGAATGAAGG
DNA 2: CCTTCATTCTACGCTGTCAATCGCGGAGACCATCCTGGCTAACACAGTGAAATCTCATGC
B24: NRC3_wobSeed47_DR1_G12T_o1 (dsDNA)
DNA 1: GCGGAACGAGGTCAAAGTTGATAGCATCTGTCGACGGCGATTGACAGCGTAGAATGAAGG
DNA 2: CCTTCATTCTACGCTGTCAATCGCCGTCGACAGATGCTATCAACTTTGACCTCGTTCCGC
B25: NRC3_wobSeed15_DR0_G11T_o1 (dsDNA)
DNA 1: GCCGAACTAGTTCAAGGACAGTGAATCTCCGCACGCGCGATTGACAGCGTAGAATGAAGG
DNA 2: CCTTCATTCTACGCTGTCAATCGCGCGTGCGGAGATTCACTGTCCTTGAACTAGTTCGGC

Legend:
PPARg:RXRa = PPARg:RXRa (Homo sapiens, UniProt P37231;P19793 full;full); experiment: no ligand; PBM; 180 nM : 90 nM RXRa; PBS pH 7.4, 2% milk, 0.02% Triton X-100, 1 mM DTT, BSA, 0.4 mg/ml salmon testes DNA; conditions: tags: His kept;His cleaved; copies: 1;1; label: surface-attached array probe
PPARg:RXRa, sequence (P37231 29-505, chain 1 of 2): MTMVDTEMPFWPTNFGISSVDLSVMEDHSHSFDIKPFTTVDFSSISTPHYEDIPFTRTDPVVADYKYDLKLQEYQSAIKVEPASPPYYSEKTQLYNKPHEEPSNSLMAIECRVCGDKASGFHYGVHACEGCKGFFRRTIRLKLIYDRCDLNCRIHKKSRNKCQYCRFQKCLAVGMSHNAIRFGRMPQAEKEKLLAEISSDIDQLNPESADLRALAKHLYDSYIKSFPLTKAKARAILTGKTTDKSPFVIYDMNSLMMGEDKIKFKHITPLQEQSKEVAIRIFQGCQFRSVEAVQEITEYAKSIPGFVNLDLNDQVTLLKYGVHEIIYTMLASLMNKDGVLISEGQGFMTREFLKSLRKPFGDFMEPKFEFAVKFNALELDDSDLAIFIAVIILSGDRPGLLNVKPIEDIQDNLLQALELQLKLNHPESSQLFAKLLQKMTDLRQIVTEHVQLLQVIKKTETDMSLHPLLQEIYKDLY
PPARg:RXRa, sequence (P19793 whole entry, chain 2 of 2): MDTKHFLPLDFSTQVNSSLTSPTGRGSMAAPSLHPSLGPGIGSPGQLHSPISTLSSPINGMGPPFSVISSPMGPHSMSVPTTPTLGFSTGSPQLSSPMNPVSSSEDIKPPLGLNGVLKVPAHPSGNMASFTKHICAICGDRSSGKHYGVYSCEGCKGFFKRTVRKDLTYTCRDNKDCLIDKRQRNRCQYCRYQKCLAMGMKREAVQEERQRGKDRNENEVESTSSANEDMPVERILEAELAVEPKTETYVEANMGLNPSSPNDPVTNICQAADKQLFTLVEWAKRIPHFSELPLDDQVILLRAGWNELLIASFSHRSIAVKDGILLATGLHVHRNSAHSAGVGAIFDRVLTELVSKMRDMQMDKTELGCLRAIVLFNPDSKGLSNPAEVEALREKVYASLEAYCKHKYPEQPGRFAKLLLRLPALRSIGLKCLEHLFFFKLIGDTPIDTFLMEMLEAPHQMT
PPARa:RXRa = PPARa:RXRa (Homo sapiens, UniProt Q07869;P19793 full;full); experiment: no ligand; PBM; 270 nM : 90 nM RXRa; PBS pH 7.4, 2% milk, 0.02% Triton X-100, 1 mM DTT, BSA, 0.4 mg/ml salmon testes DNA; conditions: tags: GST kept;His cleaved; copies: 1;1; label: surface-attached array probe
PPARa:RXRa, sequence (Q07869 whole entry, chain 1 of 2): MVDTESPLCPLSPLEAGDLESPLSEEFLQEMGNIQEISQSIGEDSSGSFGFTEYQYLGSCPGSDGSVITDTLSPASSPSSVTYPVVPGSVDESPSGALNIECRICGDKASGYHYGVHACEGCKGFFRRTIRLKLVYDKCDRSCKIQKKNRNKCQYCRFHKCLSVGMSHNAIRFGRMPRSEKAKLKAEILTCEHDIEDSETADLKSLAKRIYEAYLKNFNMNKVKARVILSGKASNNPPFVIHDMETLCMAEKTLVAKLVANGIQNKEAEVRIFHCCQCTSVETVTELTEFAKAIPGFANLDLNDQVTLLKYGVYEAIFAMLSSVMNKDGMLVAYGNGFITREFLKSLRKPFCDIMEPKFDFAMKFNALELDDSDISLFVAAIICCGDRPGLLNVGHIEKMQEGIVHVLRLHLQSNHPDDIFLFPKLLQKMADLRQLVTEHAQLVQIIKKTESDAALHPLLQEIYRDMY
PPARa:RXRa, sequence (P19793 whole entry, chain 2 of 2): as the sequence (P19793 whole entry, chain 2 of 2) above
Method in brief: (§1)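 Ligand-free nuclear receptor dimers were applied to custom Agilent 4×180K protein-binding microarrays whose double-stranded probes carried direct-repeat seeds, single-nucleotide variants, half-site ablations and random human genomic background sequences in 34-nt variable regions. Incubation lasted 1 h. Binding z-scores were computed against the random background probes from regression-normalized fluorescence.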

RARb:RXRa = RARb:RXRa (Homo sapiens, UniProt P10826;P19793 full;full); experiment: as above; conditions: tags: His kept;His cleaved; copies: 1;1; label: surface-attached array probe
RARb:RXRa, sequence (P10826 whole entry, chain 1 of 2): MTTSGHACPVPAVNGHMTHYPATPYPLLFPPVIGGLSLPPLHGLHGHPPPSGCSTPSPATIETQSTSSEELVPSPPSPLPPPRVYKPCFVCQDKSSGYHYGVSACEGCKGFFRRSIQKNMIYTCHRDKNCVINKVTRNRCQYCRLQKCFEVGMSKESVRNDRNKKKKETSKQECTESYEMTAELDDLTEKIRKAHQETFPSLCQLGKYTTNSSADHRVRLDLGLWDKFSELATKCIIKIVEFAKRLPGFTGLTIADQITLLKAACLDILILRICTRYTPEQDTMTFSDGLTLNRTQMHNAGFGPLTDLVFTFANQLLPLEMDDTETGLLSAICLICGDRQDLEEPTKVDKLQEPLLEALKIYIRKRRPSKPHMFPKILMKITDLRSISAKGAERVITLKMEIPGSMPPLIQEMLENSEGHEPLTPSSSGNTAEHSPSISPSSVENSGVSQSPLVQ
RARb:RXRa, sequence (P19793 whole entry, chain 2 of 2): as the sequence (P19793 whole entry, chain 2 of 2) above
Method in brief: as §1

RARg:RXRa = RARg:RXRa (Homo sapiens, UniProt P13631;P19793 full;full); experiment: as above; conditions: tags: His kept;His cleaved; copies: 1;1; label: surface-attached array probe
RARg:RXRa, sequence (P13631 whole entry, chain 1 of 2): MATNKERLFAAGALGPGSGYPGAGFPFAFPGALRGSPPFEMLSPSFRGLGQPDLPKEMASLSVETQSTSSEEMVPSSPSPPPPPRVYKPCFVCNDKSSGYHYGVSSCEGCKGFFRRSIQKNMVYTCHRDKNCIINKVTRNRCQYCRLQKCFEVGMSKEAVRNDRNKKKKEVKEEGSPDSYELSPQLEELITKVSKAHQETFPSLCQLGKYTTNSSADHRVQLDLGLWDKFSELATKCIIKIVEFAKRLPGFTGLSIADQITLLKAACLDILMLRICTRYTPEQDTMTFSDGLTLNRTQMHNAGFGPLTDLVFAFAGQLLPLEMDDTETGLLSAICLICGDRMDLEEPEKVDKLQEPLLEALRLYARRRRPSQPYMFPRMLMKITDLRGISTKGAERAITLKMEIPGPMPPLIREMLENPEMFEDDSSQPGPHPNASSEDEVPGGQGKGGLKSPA
RARg:RXRa, sequence (P19793 whole entry, chain 2 of 2): as the sequence (P19793 whole entry, chain 2 of 2) above
Method in brief: as §1

RXRa = RXRa (Homo sapiens, UniProt P19793); experiment: no ligand; PBM; 180 nM; PBS pH 7.4, 2% milk, 0.02% Triton X-100, 1 mM DTT, BSA, 0.4 mg/ml salmon testes DNA; conditions: tags: His cleaved; chain copies: 2; label: surface-attached array probe
RXRa, sequence (P19793 whole entry): as the sequence (P19793 whole entry, chain 2 of 2) above
FXR:RXRa = FXR:RXRa (Homo sapiens, UniProt Q96RI1;P19793 full;full); experiment: no ligand; PBM; 270 nM : 90 nM RXRa; PBS pH 7.4, 2% milk, 0.02% Triton X-100, 1 mM DTT, BSA, 0.4 mg/ml salmon testes DNA; conditions: tags: His kept;His cleaved; copies: 1;1; label: surface-attached array probe
FXR:RXRa, sequence (Q96RI1 whole entry, chain 1 of 2): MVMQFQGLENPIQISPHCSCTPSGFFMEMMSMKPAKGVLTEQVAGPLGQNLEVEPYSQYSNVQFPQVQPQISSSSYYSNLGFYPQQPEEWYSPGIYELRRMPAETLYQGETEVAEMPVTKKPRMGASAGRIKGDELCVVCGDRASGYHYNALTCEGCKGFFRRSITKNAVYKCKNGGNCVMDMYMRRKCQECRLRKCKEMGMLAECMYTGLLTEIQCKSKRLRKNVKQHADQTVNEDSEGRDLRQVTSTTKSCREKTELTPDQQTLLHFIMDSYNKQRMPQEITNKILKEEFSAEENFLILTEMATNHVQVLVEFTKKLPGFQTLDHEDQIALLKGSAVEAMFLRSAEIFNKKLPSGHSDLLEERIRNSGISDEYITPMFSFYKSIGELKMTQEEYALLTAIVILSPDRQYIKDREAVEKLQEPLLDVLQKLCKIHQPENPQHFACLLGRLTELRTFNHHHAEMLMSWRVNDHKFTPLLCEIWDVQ
FXR:RXRa, sequence (P19793 whole entry, chain 2 of 2): as the sequence (P19793 whole entry, chain 2 of 2) above
Method in brief: as §1

VDR:RXRa = VDR:RXRa (Homo sapiens, UniProt P11473;P19793 full;full); experiment: as above; conditions: tags: His kept;His cleaved; copies: 1;1; label: surface-attached array probe
VDR:RXRa, sequence (P11473 whole entry, chain 1 of 2): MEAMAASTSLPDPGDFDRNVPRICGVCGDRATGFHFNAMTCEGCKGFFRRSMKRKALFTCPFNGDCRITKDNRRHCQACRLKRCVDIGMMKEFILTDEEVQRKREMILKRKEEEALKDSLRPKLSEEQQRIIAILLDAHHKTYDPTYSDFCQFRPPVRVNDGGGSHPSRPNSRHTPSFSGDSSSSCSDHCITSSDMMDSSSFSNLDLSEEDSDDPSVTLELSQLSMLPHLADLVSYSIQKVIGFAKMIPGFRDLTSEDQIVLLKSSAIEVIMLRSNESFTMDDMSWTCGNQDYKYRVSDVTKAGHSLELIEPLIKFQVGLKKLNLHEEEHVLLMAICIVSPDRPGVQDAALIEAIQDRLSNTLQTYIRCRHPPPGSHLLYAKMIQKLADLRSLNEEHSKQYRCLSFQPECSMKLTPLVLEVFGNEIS
VDR:RXRa, sequence (P19793 whole entry, chain 2 of 2): as the sequence (P19793 whole entry, chain 2 of 2) above
Method in brief: as §1

Row | Binder | binding signal (PPARg:RXRa) | binding signal (PPARa:RXRa) | other results
1 | B1 | 12.9 PBM z-score against 500 random probes | 7.1 PBM z-score against 500 random probes | 
2 | B2 | -1.16 PBM z-score against 500 random probes |  | binding signal (RARb:RXRa): -0.25 PBM z-score against 500 random probes
3 | B3 | -3.64 PBM z-score against 500 random probes |  | binding signal (RARg:RXRa): -0.31 PBM z-score against 500 random probes
4 | B4 | 12.8 PBM z-score against 500 random probes | 7.07 PBM z-score against 500 random probes | 
5 | B5 | -1.57 PBM z-score against 500 random probes |  | binding signal (RXRa): -0.72 PBM z-score against 500 random probes
6 | B6 | -0.98 PBM z-score against 500 random probes |  | binding signal (RARb:RXRa): 0.5 PBM z-score against 500 random probes
7 | B7 | -0.51 PBM z-score against 500 random probes | -1.12 PBM z-score against 500 random probes | binding signal (RXRa): -0.68 PBM z-score against 500 random probes
8 | B8 | 0.18 PBM z-score against 500 random probes |  | binding signal (FXR:RXRa): 0.29 PBM z-score against 500 random probes
9 | B9 | 10.9 PBM z-score against 500 random probes |  | binding signal (RARb:RXRa): 3.04 PBM z-score against 500 random probes
10 | B10 | -0.35 PBM z-score against 500 random probes |  | binding signal (RARg:RXRa): 0.42 PBM z-score against 500 random probes; binding signal (RARb:RXRa): 0.45 PBM z-score against 500 random probes
11 | B11 | 12.3 PBM z-score against 500 random probes | 6.69 PBM z-score against 500 random probes | 
12 | B12 | 9.79 PBM z-score against 500 random probes |  | 
13 | B13 | 3.34 PBM z-score against 500 random probes |  | binding signal (RARg:RXRa): 4.24 PBM z-score against 500 random probes
14 | B14 | -0.02 PBM z-score against 500 random probes |  | binding signal (RXRa): -0.89 PBM z-score against 500 random probes
15 | B15 | -0.69 PBM z-score against 500 random probes |  | binding signal (FXR:RXRa): -1.65 PBM z-score against 500 random probes
16 | B16 | 12.1 PBM z-score against 500 random probes | 6.88 PBM z-score against 500 random probes | 
17 | B17 | -0.56 PBM z-score against 500 random probes | -0.1 PBM z-score against 500 random probes | 
18 | B18 | 9.64 PBM z-score against 500 random probes |  | 
19 | B19 | 0.3 PBM z-score against 500 random probes |  | binding signal (RXRa): 0.15 PBM z-score against 500 random probes; binding signal (RARg:RXRa): 0.05 PBM z-score against 500 random probes
20 | B20 | 5.13 PBM z-score against 500 random probes |  | binding signal (VDR:RXRa): 3.55 PBM z-score against 500 random probes
21 | B21 | 10.2 PBM z-score against 500 random probes |  | binding signal (RXRa): 7.84 PBM z-score against 500 random probes; binding signal (RARg:RXRa): 7.59 PBM z-score against 500 random probes; binding signal (RARb:RXRa): 5.88 PBM z-score against 500 random probes
22 | B22 | -0.37 PBM z-score against 500 random probes |  | binding signal (RARg:RXRa): -0.1 PBM z-score against 500 random probes
23 | B23 | 0.22 PBM z-score against 500 random probes |  | binding signal (RXRa): -0.2 PBM z-score against 500 random probes
24 | B24 | 10.5 PBM z-score against 500 random probes | 6.61 PBM z-score against 500 random probes | binding signal (RXRa): 8.54 PBM z-score against 500 random probes; binding signal (FXR:RXRa): 8.06 PBM z-score against 500 random probes
25 | B25 | 0.49 PBM z-score against 500 random probes | 0.44 PBM z-score against 500 random probes | 
